The chains are these.
B3: purified cJun (natural protein, human, UniProt P05412 1-331, looked up)
chain: MTAKMETTFYDDALNASFLPSESGPYGYSNPKILKQSMTLNLADPVGSLKPHLRAKNSDLLTSPDVGLLKLASPELERLIIQSSNGHITTTPTPTQFLCPKNVTDEQEGFAEGFVRALAELHSQNTLPSVTSAAQPVNGAGMVAPAVASVAGGSGSGGFSASLHSEPPVYANLSNFNPGALSSGGGAPSYGAAGLAFPAQPQQQQQPPHHLPQQMPVQHPRLQALKEEPQTVPEMPGETPPLSPIDMESQERIKAERKRMRNRIAASKCRKRKLERIARLEEKVKTLKAQNSELASTANMLREQVAQLKQKVMNHVNSGCQLMLTQQLQTF

Common to all, as to assay: pull-down
In one experiment the target is T1, HA-NFATc2 (human, UniProt Q13469-2 1-921).
T1 sequence (looked up): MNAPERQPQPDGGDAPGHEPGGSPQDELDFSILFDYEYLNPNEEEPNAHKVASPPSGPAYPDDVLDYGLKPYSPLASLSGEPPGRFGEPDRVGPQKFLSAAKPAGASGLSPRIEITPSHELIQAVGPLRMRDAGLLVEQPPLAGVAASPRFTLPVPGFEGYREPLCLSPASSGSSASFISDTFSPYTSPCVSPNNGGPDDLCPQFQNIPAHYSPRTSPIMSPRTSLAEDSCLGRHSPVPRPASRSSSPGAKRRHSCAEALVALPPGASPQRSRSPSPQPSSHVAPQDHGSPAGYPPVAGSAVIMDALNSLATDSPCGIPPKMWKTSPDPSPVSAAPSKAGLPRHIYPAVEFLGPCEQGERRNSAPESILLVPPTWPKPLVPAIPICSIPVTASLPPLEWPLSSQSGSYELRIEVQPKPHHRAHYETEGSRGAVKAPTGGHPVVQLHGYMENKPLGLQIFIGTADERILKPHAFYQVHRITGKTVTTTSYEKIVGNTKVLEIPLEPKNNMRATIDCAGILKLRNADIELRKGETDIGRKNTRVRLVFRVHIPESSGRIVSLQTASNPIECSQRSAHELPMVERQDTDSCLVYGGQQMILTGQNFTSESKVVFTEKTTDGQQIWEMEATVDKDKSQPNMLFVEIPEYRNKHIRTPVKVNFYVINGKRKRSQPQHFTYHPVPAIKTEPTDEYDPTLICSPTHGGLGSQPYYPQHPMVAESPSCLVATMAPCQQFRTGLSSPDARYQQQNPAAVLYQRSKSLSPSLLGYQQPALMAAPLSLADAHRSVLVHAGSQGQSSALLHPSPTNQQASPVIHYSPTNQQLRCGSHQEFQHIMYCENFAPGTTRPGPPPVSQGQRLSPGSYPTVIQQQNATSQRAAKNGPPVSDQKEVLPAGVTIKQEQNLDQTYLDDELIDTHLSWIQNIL

The experiment “purified cJun” has as its target B3.
The next experiment deals with T2, GST-NFATc2 (full-length) (human, UniProt Q13469-2 1-921).
T2 sequence (looked up): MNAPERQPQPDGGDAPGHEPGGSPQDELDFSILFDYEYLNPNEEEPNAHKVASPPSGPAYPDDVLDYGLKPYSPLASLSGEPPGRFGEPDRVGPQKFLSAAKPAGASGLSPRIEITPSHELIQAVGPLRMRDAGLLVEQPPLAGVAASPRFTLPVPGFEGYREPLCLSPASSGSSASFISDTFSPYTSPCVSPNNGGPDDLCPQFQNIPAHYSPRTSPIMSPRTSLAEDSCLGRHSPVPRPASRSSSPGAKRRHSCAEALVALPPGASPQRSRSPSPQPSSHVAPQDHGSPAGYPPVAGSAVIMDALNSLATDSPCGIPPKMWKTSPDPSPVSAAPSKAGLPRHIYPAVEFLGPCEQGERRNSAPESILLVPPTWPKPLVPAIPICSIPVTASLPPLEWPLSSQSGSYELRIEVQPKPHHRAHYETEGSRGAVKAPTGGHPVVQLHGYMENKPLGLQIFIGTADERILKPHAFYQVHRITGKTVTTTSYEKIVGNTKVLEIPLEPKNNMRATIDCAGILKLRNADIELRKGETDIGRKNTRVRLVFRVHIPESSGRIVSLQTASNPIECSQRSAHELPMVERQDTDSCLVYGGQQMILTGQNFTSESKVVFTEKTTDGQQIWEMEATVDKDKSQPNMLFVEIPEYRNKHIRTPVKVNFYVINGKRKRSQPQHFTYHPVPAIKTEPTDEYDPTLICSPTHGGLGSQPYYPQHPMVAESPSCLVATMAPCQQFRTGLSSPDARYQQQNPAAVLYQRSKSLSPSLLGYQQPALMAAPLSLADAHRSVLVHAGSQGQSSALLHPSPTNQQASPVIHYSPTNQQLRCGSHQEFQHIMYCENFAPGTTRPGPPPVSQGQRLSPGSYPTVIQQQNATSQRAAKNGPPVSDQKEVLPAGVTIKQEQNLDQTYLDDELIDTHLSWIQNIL

B1: GST-cJun(1–317) (domain or fragment, human, UniProt P05412 1-317, looked up)
chain: MTAKMETTFYDDALNASFLPSESGPYGYSNPKILKQSMTLNLADPVGSLKPHLRAKNSDLLTSPDVGLLKLASPELERLIIQSSNGHITTTPTPTQFLCPKNVTDEQEGFAEGFVRALAELHSQNTLPSVTSAAQPVNGAGMVAPAVASVAGGSGSGGFSASLHSEPPVYANLSNFNPGALSSGGGAPSYGAAGLAFPAQPQQQQQPPHHLPQQMPVQHPRLQALKEEPQTVPEMPGETPPLSPIDMESQERIKAERKRMRNRIAASKCRKRKLERIARLEEKVKTLKAQNSELASTANMLREQVAQLKQKVMNHVN
B1: in the experiment with HA-NFATc2, the binding result is “binds”.

B2: GST-NFATc2(688–921) (domain or fragment, human, UniProt Q13469-2 688-921, looked up)
chain: EYDPTLICSPTHGGLGSQPYYPQHPMVAESPSCLVATMAPCQQFRTGLSSPDARYQQQNPAAVLYQRSKSLSPSLLGYQQPALMAAPLSLADAHRSVLVHAGSQGQSSALLHPSPTNQQASPVIHYSPTNQQLRCGSHQEFQHIMYCENFAPGTTRPGPPPVSQGQRLSPGSYPTVIQQQNATSQRAAKNGPPVSDQKEVLPAGVTIKQEQNLDQTYLDDELIDTHLSWIQNIL
With B2, the binding result in the experiment with purified cJun is given as “binds”.
Regarding B3, the binding result in the experiment with GST-NFATc2 (full-length) was “binds”.

The values above are taken from article PMC2918688 (Molecular immunology, 2010).
